Measurements reported in PMC9154775.

Molecular target: hC3nb1-K57-ScFc (llama | bovine)
Assay: SPR

Kd: 3.7 nM
Substance: human Complement C3 (natural protein)
